Like-named read-outs stand apart in the source and are kept apart here. No end group written: not given here.
Tests used:
[1] = molecular target: T1, human recombinant adrenomedullin receptor (CRLR + RAMP3) (human); assay: cell-based or functional assay
[2] = molecular target: T1, human recombinant adrenomedullin …; assay: cell-based or functional assay; remark: listed apart in the source

T1 sequence (Q16602 whole entry, chain 1 of 2): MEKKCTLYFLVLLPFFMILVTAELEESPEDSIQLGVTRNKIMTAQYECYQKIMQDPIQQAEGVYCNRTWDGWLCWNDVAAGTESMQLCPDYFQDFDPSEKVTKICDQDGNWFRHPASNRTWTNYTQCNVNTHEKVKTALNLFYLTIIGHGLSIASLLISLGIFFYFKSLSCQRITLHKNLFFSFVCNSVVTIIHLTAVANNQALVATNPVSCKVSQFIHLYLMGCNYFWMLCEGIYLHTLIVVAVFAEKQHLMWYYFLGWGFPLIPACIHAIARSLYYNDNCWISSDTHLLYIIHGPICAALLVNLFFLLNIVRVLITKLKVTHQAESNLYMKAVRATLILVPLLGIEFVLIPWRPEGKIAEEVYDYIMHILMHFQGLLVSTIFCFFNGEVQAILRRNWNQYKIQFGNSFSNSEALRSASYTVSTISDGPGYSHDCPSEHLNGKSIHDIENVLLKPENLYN
T1 sequence (O60896 whole entry, chain 2 of 2, further chain): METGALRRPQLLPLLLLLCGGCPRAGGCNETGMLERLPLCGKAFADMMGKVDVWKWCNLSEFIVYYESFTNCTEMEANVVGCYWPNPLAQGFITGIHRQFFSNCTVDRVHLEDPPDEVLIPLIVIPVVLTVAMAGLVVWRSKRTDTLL

B1: Murine ADM 1-50 (peptide)
peptide: YRQSMNQGSRSNGCRFGTCTFQKLAHQIYQLTDKDKDGMAPRNKISPQGY-NH2
modifications: ends and bridges not checked
[1]
  EC50 (read off the curve): ~0.09 nM

B2: mature human Adrenomedullin (Human ADM 1-52) (peptide)
peptide: YRQSMNNFQGLRSFGCRFGTCTVQKLAHQIYQFTDKDKDNVAPRSKISPQGY-NH2
modifications: ends and bridges not checked
[2]
  EC50 (read off the curve): ~1 nM

Source: US20200299372A1 (ADRENOMED, published 2020)
